Measurements taken from the Human Domainome abundance scans (Beltran et al. 2025).
± gives the uncertainty stated by the source.

B1: Double-stranded RNA-binding protein Staufen homolog 1, residues 183 to 249; numbered along this chain, O95793 (parent)
chain: KSEISQVFEIALKRNLPVNFEVARESGPPHMKNFVTKVSVGEFVGEGEGKSKKISKKNAAIAVLEEL

Variants of: B1
Assay: abundance fitness (aPCA) (normalised: wild type 0, dead -1); higher = more abundant; growth selection in yeast, the domain comes from the species named
Conditions: Homo sapiens

Compared with I4H, I4V is higher in abundance fitness: -0.447 ± 0.067 for the first, -0.059 ± 0.037 for the second.

Going from I4F to E46Y, the abundance fitness rises from -0.534 ± 0.07 to -0.013 ± 0.13.

E46T and E46N are within error of each other in abundance fitness: 0.071 ± 0.06 for the first, 0.01 ± 0.16 for the second.

E46I and V35K are within error of each other in abundance fitness: 0.052 ± 0.14 for the first, 0.048 ± 0.066 for the second.

First: V35H
Second: V35Q
The abundance fitness of the first is higher: 0.029 ± 0.06 for the first, -0.093 ± 0.059 for the second.

V35T and K50R are within error of each other in abundance fitness: -0.02 ± 0.05 for the first, -0.006 ± 0.034 for the second.

First: K50Y
Second: A60E
The abundance fitness of the first is higher: -0.187 ± 0.083 for the first, -0.575 ± 0.056 for the second.

First: A60Q
Second: A60Y
The abundance fitness of the first is lower: -0.741 ± 0.057 for the first, -0.431 ± 0.072 for the second.

Going from P28A to P28V, the abundance fitness falls from -0.155 ± 0.056 to -0.278 ± 0.052.

P28W and P28M are within error of each other in abundance fitness: -0.316 ± 0.046 for the first, -0.303 ± 0.062 for the second.

V22L and V22Y are within error of each other in abundance fitness: 0.016 ± 0.043 for the first, -0.094 ± 0.067 for the second.

V22N and L64M are within error of each other in abundance fitness: -0.114 ± 0.068 for the first, -0.218 ± 0.048 for the second.

L64I and L64W are within error of each other in abundance fitness: -0.584 ± 0.12 for the first, -0.67 ± 0.077 for the second.

First: L64K
Second: L64Y
The abundance fitness of the first is higher: -0.472 ± 0.05 for the first, -0.713 ± 0.091 for the second.

First: L64N
Second: V63C
The abundance fitness of the first is lower: -0.423 ± 0.094 for the first, -0.233 ± 0.062 for the second.

V63Q and V63D are within error of each other in abundance fitness: -0.597 ± 0.065 for the first, -0.497 ± 0.097 for the second.

Going from V63S to V63A, the abundance fitness rises from -0.693 ± 0.053 to -0.246 ± 0.055.

Going from V63R to K1S, the abundance fitness rises from -0.73 ± 0.042 to -0.316 ± 0.071.

First: K1L
Second: K1T
The abundance fitness of the first is lower: -0.3 ± 0.052 for the first, -0.166 ± 0.065 for the second.

Compared with K1H, A62M is higher in abundance fitness: -0.738 ± 0.2 for the first, -0.226 ± 0.065 for the second.

Going from A62L to A62T, the abundance fitness rises from -0.68 ± 0.055 to -0.381 ± 0.059.

First: N58Y
Second: N58Q
The abundance fitness of the first is lower: -0.4 ± 0.075 for the first, -0.126 ± 0.051 for the second.

E3N and E3D are within error of each other in abundance fitness: -0.396 ± 0.086 for the first, -0.286 ± 0.059 for the second.

S55Q and S55L are within error of each other in abundance fitness: -0.769 ± 0.066 for the first, -0.843 ± 0.049 for the second.

Going from S55I to V40W, the abundance fitness falls from -0.718 ± 0.12 to -1.3 ± 0.18.

V40K and V40Y are within error of each other in abundance fitness: -0.851 ± 0.078 for the first, -0.809 ± 0.12 for the second.

Compared with K56R, K56W is lower in abundance fitness: -0.042 ± 0.044 for the first, -0.825 ± 0.1 for the second.

Going from K56E to A59Q, the abundance fitness falls from -0.504 ± 0.094 to -0.785 ± 0.081.

Going from A59V to A59N, the abundance fitness rises from -1.03 ± 0.072 to -0.705 ± 0.12.

Compared with A59M, A59G is higher in abundance fitness: -0.753 ± 0.075 for the first, -0.61 ± 0.036 for the second.

Compared with A59C, A59T is lower in abundance fitness: -0.663 ± 0.074 for the first, -0.869 ± 0.091 for the second.

Going from V18F to V18M, the abundance fitness rises from -0.832 ± 0.15 to -0.396 ± 0.093.

First: V18C
Second: S2V
The abundance fitness of the first is higher: -0.218 ± 0.1 for the first, -0.7 ± 0.11 for the second.

Going from S51I to A23H, the abundance fitness rises from -0.904 ± 0.18 to 0.066 ± 0.076.

A23F and A23E are within error of each other in abundance fitness: -0.121 ± 0.066 for the first, -0.102 ± 0.061 for the second.

A23S and A23L are within error of each other in abundance fitness: -0.063 ± 0.038 for the first, 0.008 ± 0.034 for the second.

V44H and V44I are within error of each other in abundance fitness: -0.102 ± 0.15 for the first, -0.04 ± 0.075 for the second.

V44A and K52V are within error of each other in abundance fitness: -0.18 ± 0.044 for the first, -0.243 ± 0.044 for the second.

K52M and I61H are within error of each other in abundance fitness: -0.29 ± 0.058 for the first, -0.218 ± 0.15 for the second.

Going from L16C to M31E, the abundance fitness rises from -0.515 ± 0.076 to 0.103 ± 0.049.

M31K and S26T are within error of each other in abundance fitness: 0.104 ± 0.053 for the first, 0.085 ± 0.21 for the second.

E9D and E9A are within error of each other in abundance fitness: -0.049 ± 0.047 for the first, -0.057 ± 0.038 for the second.
